assay: label from the status in PepcDB records

Q: For “MLFWGSAFNAMSYVIQYMPPLSAAAERFTIASLGLFILFAAIGKLRWAALRQNLAIYLIIGIIGIAGFNLGCFYGLQTTSAVNGALIMATTPLITLLLTILLDGEKLTLNKSIGVVFGLSGVLFVISHGHISTLLHLKIAIGDLFILLGGVSFCLANMLSRRYVKNATPLETTTFSMMSGALTLIILSVIFEHPSQAIAMAPITAHLAMGYVIICSTMIAYLFWFNGIQKLGAGRASIFFNFVPVFSMLVALLAGQSLNIWQLIGTALVMLGVMSSGGFIQIKRPTLIAKPCTK”, which protein production is on record?
A: The protein production was “failed”.

Q: Which protein production does the source give for “MLGAVARGGWVYEVHAAGAGTDLYRVSLLEGYQEQRPLSAAESAALPALLPLVHAESALSEMGYFHGVMGSTADTALAYDRFVGHTRWFGGEDGTRLLNRIRTRLQRPGPVRFWNGSSPPTGEDRRAALVP” here?
A: The protein production was “failed”.

Q: Which protein production does the source give for “MLGFKDIPLTKKVIHIINDIERPFMIRWSNSHDVQQIHDWLQEEEALEVHGNFLCNWNLTRQCHEEGRLLVLIDEIKGIPVAYQWGQLLSSGILQVRNGWRGNGLGRLVVEHCVELALQQDEMVLQVECKPSSSIPFWEAMGFTIVEGEFGKNAKGFRVLSKNLALPPGGRPILATISSFPEERNWQDNVPAIASYHLNAIVADDGKVYLAERASFPKCFRRMSRDPVIEIIVEGKLVYRDKAKYQGAQDHGVKWCRNGFYIDVVTI” here?
A: Its protein production is “failed”.

Q: Which protein production does the source give for “MLGHNKISVIIPAYNEERRIGNVLKGIPDFVDEVIVVDDGSSDGTSKVAMELGATVIRLNKNSGKGAAMREGLKISTGDIIVFMDADGQHNPKEIYRLVKPIVEGRADLVIGRRIITRGKRPMSRKISNFITTRLITLKTRKKILDTQSGFRAIRREFVPVIESDRYEVETEVLIKAIKKGARILEVPISTRYDVETGHFKMIDIFRFLFALIKYLEHHHHHH” here?
A: The protein production was “failed”.

Q: Which protein production does the source give for “MLHFAHIFQNKVHTMNITKPFPLPTGYFGIPLGLAALSLAWFHLENLFPAARMVSDVLGIVASAVWILFILMYAYKLRYYFEEVRAEYHSPVRFSFIALIPITTMLVGDILYRWNPLIAEVLIWIGTIGQLLFSTLRVSELWQGGVFEQKSTHPSFYLPAVAANFTSASSLALLGYHDLGYLFFGAGMIAWIIFEPVLLQHLRISSLEPQFRATMGIVLAPAFVCVSAYLSINHGEVDTLAKILWGYGFLQLFFLLRLFPWIVEKGLNIGLWAFSFGLASMANSATAFYHGNVLQGVSIFAFVFSNVMIGLLVLMTIYKLTKGQFFLK” here?
A: Its protein production is “not failed”.

Q: Which protein production does the source give for “MLHGLKQRLEALHHPGELEGSPQNLHQLLGVSIEQSVPQAQTMLVERHLASLTGDEARLLAALSDGSAFALLTLYSGSRFSRGEVLYRYSNAGRAAGIQCNDFIALYLNHLFAQGLVIASDFTESLRTDYELCEGDSDFRKAQAELQIHLPKLSIRRETLRISPLGRQLWTLMTTPADIEE” here?
A: Its protein production is “not failed”.

Q: With “MLHIDDAMIEDAVTPQAAQEVLHAAFLDFGRGSAAMQRRVRTEAGGVKLSTLGAVIPGQGVAGAKVYTTIKGQFQFVILLFSAADGRPLATCDAGTLTRKRTAACTVLAAGALARLRSSVLGLFGAGTQGVEHAAQLSARFALEAILVHDPHASPEVVERIGRRCGVPARMAAPADIAAQADIVVTATRSATPLFAGQALRAGAFVGAIGSSLPHTRELDDEVLRRARAVVVEWREQTLSEAGDLVLAAPDTGLDAKVVELADVLAGRATARQADEDIVIYKSVGVGLEDVALAGYAYRRLAAQRGWPAP” as the sequence, how does the protein production read?
A: Its protein production is “failed”.

Q: For “MLIDIALATYNGEKYIQEMLNSISNQTYQDFMIHLRDDGSTDNTLTLCENHKLYEQGKLKIYKDNIKGLGASKNFLKILGHCNSEYIFLCDQDDFWMKDKIQKMLDHIQKHEYKNNIKVPTLVFSDLQIVDRSLNIIADSFYRNSIKSSMCSSPFDFLLSNHIPGCAMVVNKSLLESIQPLPENFRMHDWWLAFVASFYGKIAYLDEPLIKYRQHGGNTVGVPGMNINILRQIKSILNFRDLLDKGLLHKKKMEIYIDKTCSNKILSYESNRFYDFLKGNMPFLEKNKIFKQIKFGEPLILSYLVWLFL”, which protein production is on record?
A: Its protein production is “failed”.

Q: With “MLIENAVDFIENANIGIHTVSPEGIIKYANEHELTVLGYTEDEYVGHHVSEFQFDKSCLEQMMIKLAKFESFSNFPAMVCGKLKMKYILYNSSVYAEDGEFVHTRCFGNEISKSVYQACKVDYKKSLTNRVD” as the sequence, how does the protein production read?
A: The protein production was “failed”.

Q: With “MLIKKIDLHKDPIRKLFFYYFIPLAFSMISLSTYSMIDGMFVGKKLGKEAIAAVNIAWPIFPGLIAYELLFGFGAASIVGYFLGQNKTHRARLVFSSVFYFVAISAFILSMALLPFSETIARFFGSNDALLSMSKRYIEIILMGAVFMVLHPLADVFVVNDKRPILAMVAMLIGSLANIFFNYLFIFVLKVGVQGSAIATVIGHAIGVLVLMQHFWRKKGQLYFIKRFSLSSVISSAKSGVPQSTAEFSASVMILLFNTAIMHTAGERFVSMYGIVMYNAIIFFTTLFAISQGIQPIASFSYGARNLERVKEVFVFGLKAAFCIGIVFYGAYYFLDEFLIKLYLQPSEQDPLFMQETKRAMNIYYVGYIFLGMTLLCAVFFQSIQRTKSSFIITLSHTLGFIVILLPILSHFYGINGVWVTYPIAQFLAFLVALGVTYYEIKKGVFTTYKEKNPIALKT” as the sequence, how does the protein production read?
A: Its protein production is “failed”.

Q: With “MLIKSIKLTNILSFGEAAETIELRPLNVVIGPNGSGKSNLIAAIELFRALPKDAPAFFRREGGIHDWLWKGGEIPPVATIESVFDEKGPLSGLRYALRFTVVGQHFEIIEERIEEEAAEGAQTPPPYHFKDGRGALRALLANEGEIKAWSFVIPSEIDPTQSILAQRKDPHQYPELTSLGAVLPTMRCYREWTMGPQSPPRQDQKTDLRNDYLDPYGAGNLALVLQRLGNKPALKKRFLEALRLLYEGIDDYGVTIEGGTSQIFFHEGGRFTIPASRLSDGTLRYLCLLAILLDPAPPPLLCIEEPELGLHPDILPTLADLLKEASERTQVIVTTHSDGLVDAMTDRPEAVLIAEKNENGTTLTRLDGETLKPWLAKYRLGELWTRGGIGGTRWLEHHHHHH” as the sequence, how does the protein production read?
A: Its protein production is “failed”.

Q: For “MLILLPDFIGHPSCFRGLLARLGATDCRLVDYHRLDAYASIEALASQVLDGLAEEPDWLIGYSFGGLVGYEMARQLPASRLLMIDSHLPWPALRRMPPSEQYQRWLSAEMREWIALMSELGELREEVLLRNVELFGRWQPRHRLARASWVRCRDDAGRDPAAERWCDLIERLDTFPCERPHHLALQDPAVIDFIVHTVSK”, which protein production is on record?
A: The protein production was “failed”.

Q: Which protein production does the source give for “MLIPHDLLEADTLNNLLEDFVTREGTDNGDETPLDVRVERARHALRRGEAVILFDPESQQCQLMLRSEVPAELLRD” here?
A: The protein production was “not failed”.

Q: For “MLIPQQKELNSISLLAEVSRTVTNENDISKVLRIVLFIMSEHLDMLRGMITILNRETGEITTNESFGLTEEEMERGRYRIGEGIIGQVVKTGKPFIVPNIGDEPLFLDRTRSRQKTKKENLCFICIPIRSGAEIIGTLSADRQLEPSLLKESGKRMKAEDERMDLLQHYVDLLSIIASMISQAVRLKQIAHEATAGIAVVEHKPQQEK”, which protein production is on record?
A: The protein production was “failed”.

Q: Which protein production does the source give for “MLIQDLSHKNIKDYTSIYGEEYINRIVEKAEKLRDITLTHVNSTSLGGGVAEILYSLVPLMNSIGITTRWEVIKGGNEFFNVTKKIHNALQGAEIDLSDEEKRIYLENNKWNVENELVLDSTHIVVHDPQPLPIRKFAENNKKWIWRCHIDLSTPYKPVWLFISQLLRGYEASIFHLKEYIHPETPTPIKYVMPPSIDPLSDKNKELSWSTIEKILNRYGIDPEKPILLQVARFDPWKDPFAAIDVYRLVKKEFPDTQLLLVTSMATDDPEGWIYYEKTLKYAGMDEDIFILTNLKNVGTLEVNAFQRAATVVLQMSRREGFGLAVTEALWKRKPVVARPRGGIKLQVIDGVTGHLAETVEEAAKKTIYLIKNPQKRKELGENGYKHVLKHFTIVRHIENYLDLLAKIV” here?
A: The protein production was “failed”.

Q: For “MLISALIVMVITYCLIISRSITKIPPWASMFFGGILMVILGIISPEEALQSINLDVILFLITLFTFASALEVSGFLKFLAYKIIEKFKEPRKVLFYILLYSGLLSNLVTNDGVSASWTPVILELSRMIGVSEVPFLYALAVGVTIGSVIMPTGNPQNLLIALESGIKNPFITFTIYLTLPSIISLIIAYFILFRLFRKSLSLPSGINIKKEEEEKVDFDRRLGYLTLTLLVVTIILFFSLSFFKIDILLGSLVTSSILLLLTEKRRDIVRRMDWPTILFFIGLFIFTDGVLKSGIIQYLSNFLPPPDSVASIMIVSILLSQVLSNVPLVAIYIPIMISHSGITVVDWLALAAGSTIAGNFTILGAASNVIISEASESRGGKGFNFVEFMKYTIPILIPNAIIIYLFLVLFR”, which protein production is on record?
A: The protein production was “failed”.
